B1: "Na(+)/H(+) exchange regulatory cofactor NHE-RF1" (Homo sapiens), O14745 (parent)
chain: MSADAAAGAPLPRLCCLEKGPNGYGFHLHGEKGKLGQYIRLVEPGSPAEKAGLLAGDRLVEVNGENVEKETHQQVVSRIRAALNAVRLLVVDPETDEQLQKLGVQVREELLRAQEAPGQAEPPAAAEVQGAGNENEPREADKSHPEQRELRPRLCTMKKGPSGYGFNLHSDKSKPGQFIRSVDPDSPAEASGLRAQDRIVEVNGVCMEGKQHGDVVSAIRAGGDETKLLVVDRETDEFFKKCRVIPSQEHLNGPLPVPFTNGEIQKENSREALAEAALESPRPALVRSASSDTSEELNSQDSPPKQDSTAPSSTSSSDPILDFNISLAMAKERAHQKRSSKRAPQMDWSKKNELFSNL

Variants of: B1
Conditions: with moes_human MSN

| effect of a mutation on the interaction | Variant |
| --- | --- |
| decreasing interaction | MSADAAAGAPLPRLCCLEKGPNGYGFHLHGEKGKLGQYIRLVEPGSPAEKAGLLAGDRLVEVNGENVEKETHQQVVSRIRAALNAVRLLVVDPETDEQLQKLGVQVREELLRAQEAPGQAEPPAAAEVQGAGNENEPREADKSHPEQRELRPRLCTMKKGPSGYGFNLHSDKSKPGQFIRSVDPDSPAEASGLRAQDRIVEVNGVCMEGKQHGDVVSAIRAGGDETKLLVVDRETDEFFKKCRVIPSQEHLNGPLPVPFTNGEIQKENSREALAEAALESPRPALVRSASSDTSEELNSQDSPPKQDSTAPSSTSSSDPILDFNISLAMAKERAHQKRSSKRAPQMDWSKKNELRSNL [F355R] |
